According to paper PMC4904203:

Key:
[1] = molecular target: MEF2C fused to the C-terminal half of Venus (VC) (UniProt Q8CFN5); experiment: split reporter (BiFC, NanoBiT); Venus BiFC: VN and VC fusions co-transfected into C2C12 myoblasts with mCherry as transfection control; confocal imaging 24 h after transfection; cells with Venus complementation counted as percent of mCherry-positive cells (mean ± SD, three experiments); for Fig. 6a cells were first transfected with Trip6 siRNA or control siRNA
[2] = molecular target: nTRIP6 fused to the C-terminal half of Venus (VC); experiment: as above; conditions: scale: %

Sequence of UniProt Q8CFN5 (Q8CFN5 whole entry, the tested form may be a part): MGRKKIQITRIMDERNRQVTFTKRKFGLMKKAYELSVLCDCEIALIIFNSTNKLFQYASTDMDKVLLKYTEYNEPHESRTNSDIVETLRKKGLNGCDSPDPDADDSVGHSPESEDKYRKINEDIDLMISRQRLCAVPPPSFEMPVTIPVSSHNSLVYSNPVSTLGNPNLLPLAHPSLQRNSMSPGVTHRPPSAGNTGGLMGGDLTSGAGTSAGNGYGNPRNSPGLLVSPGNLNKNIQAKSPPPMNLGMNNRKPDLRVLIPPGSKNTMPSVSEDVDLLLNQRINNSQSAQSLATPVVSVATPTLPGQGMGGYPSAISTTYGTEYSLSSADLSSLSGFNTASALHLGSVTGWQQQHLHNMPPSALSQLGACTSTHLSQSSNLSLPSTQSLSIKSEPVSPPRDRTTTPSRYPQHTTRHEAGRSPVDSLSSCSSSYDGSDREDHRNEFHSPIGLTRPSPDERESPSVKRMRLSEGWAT

percent of transfected cells with Venus complementation [1]	percent of transfected cells with Venus complementation [2]	Substance
70.6%	–	nTRIP6 (nuclear isoform of TRIP6) fused to the N-terminal half of Venus (VN) (natural protein)
65.5%	–	nTRIP6 lacking the LIM domains (pre-LIM) fused to VN (domain or fragment)
–	79.5	HDAC5-Flag fused to the N-terminal half of Venus (VN) (from UniProt Q9UQL6 1-1122) (enzyme)
